Earlier results as cited in article PMC5741096.

Key:
[1] = molecular target: IL-2Rβ/IL-2Rγ (Mus musculus) (UniProt P16297)
[2] = molecular target: IL-2Rα/IL-2Rβ/IL-2Rγ (Mus musculus) (UniProt P01590)
Sequence of UniProt P01590 (P01590 22-236, chain 1 of 3): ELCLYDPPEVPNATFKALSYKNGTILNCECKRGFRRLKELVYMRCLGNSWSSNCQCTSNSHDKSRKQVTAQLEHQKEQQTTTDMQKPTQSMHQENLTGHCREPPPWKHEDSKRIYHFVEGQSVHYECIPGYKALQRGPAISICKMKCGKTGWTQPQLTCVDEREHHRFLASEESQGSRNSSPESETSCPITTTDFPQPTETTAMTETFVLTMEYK
Sequence of UniProt P01590 (P16297 27-240, chain 2 of 3, further chain): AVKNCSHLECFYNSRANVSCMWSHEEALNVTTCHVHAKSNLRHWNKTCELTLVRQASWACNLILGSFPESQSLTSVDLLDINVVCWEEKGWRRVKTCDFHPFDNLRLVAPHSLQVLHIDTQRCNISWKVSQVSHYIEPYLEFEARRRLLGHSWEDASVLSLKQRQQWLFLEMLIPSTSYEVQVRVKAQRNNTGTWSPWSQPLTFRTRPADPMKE
Sequence of UniProt P01590 (P34902 23-263, chain 3 of 3, further chain): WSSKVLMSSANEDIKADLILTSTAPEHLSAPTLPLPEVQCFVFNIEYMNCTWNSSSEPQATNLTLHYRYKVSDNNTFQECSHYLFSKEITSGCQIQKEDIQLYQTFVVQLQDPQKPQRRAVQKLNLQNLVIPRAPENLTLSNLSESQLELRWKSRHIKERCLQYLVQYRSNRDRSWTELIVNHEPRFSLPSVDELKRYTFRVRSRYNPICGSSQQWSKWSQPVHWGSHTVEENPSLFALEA

Sequence of UniProt P16297 (P16297 27-240, chain 1 of 2): as the sequence (P16297 27-240, chain 2 of 3, further chain) above
Sequence of UniProt P16297 (P34902 23-263, chain 2 of 2, further chain): as the sequence (P34902 23-263, chain 3 of 3, further chain) above

**Q.** With IL-2 (from UniProt P04351) as the substance, how does the Kd [1] read?
**A.** 1 nM

**Q.** And the Kd [2]?
**A.** 0.01 nM
